Test results: publication PMC7083938 (2020)

T1: biotinylated mouse Robo3 FN1–3 (Avi-tagged) (mouse, UniProt Q9Z2I4 558-869, biotin on the Avi-tag (BirA))
T1 chain: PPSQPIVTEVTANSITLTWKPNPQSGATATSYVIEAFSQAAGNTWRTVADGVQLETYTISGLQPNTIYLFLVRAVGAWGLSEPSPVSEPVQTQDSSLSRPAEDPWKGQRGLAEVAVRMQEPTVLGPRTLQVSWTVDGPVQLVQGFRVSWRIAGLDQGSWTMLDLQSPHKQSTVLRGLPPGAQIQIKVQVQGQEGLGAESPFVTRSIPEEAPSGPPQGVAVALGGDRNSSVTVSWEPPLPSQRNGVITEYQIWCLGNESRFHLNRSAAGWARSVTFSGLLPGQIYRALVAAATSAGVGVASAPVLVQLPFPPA

B1: mouse NELL2 EGF1–6, wild type (domain or fragment)
chain: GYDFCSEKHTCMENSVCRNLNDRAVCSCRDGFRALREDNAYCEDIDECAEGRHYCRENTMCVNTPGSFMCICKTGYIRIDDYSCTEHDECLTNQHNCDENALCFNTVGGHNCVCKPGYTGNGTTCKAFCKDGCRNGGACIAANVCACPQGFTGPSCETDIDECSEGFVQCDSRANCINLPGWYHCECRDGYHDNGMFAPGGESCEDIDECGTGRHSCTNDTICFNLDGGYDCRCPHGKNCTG
B2: mouse NELL2 EGF1–6 L498A/F500A (domain or fragment)
chain: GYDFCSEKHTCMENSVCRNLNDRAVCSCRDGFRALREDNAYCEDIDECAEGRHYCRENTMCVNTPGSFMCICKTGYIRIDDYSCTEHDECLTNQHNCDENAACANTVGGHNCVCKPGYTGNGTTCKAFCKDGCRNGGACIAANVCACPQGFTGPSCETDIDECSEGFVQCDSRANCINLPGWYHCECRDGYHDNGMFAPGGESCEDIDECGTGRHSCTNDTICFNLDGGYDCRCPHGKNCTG
B3: mouse NELL2 EGF1–6 R448A/Y450A (domain or fragment)
chain: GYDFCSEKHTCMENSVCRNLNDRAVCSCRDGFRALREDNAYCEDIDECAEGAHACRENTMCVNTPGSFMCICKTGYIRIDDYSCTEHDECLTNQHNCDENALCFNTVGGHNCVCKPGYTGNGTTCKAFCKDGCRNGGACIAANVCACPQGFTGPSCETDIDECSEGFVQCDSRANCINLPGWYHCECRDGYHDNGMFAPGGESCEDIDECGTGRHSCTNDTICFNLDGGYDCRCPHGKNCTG

Target: T1, biotinylated mouse Robo3 FN1–3 …
Experiment: SPR

Kd [µM]	Binder
0.71	B1
~400	B2
87	B3
